Target: PSMA (prostate-specific membrane antigen) (UniProt Q04609)
Test: SPR
Settings: 2'-fluoro modified ('2F-modified', positions not stated); 3' spacer-NH2 coupled to DSPE-PEG-NHS nanoparticle; OpenSPR, carboxyl chip with amine coupling, running buffer PBS pH 7.4, 20 uL/min; temperature not stated

Sequence of UniProt Q04609 (Q04609 44-750): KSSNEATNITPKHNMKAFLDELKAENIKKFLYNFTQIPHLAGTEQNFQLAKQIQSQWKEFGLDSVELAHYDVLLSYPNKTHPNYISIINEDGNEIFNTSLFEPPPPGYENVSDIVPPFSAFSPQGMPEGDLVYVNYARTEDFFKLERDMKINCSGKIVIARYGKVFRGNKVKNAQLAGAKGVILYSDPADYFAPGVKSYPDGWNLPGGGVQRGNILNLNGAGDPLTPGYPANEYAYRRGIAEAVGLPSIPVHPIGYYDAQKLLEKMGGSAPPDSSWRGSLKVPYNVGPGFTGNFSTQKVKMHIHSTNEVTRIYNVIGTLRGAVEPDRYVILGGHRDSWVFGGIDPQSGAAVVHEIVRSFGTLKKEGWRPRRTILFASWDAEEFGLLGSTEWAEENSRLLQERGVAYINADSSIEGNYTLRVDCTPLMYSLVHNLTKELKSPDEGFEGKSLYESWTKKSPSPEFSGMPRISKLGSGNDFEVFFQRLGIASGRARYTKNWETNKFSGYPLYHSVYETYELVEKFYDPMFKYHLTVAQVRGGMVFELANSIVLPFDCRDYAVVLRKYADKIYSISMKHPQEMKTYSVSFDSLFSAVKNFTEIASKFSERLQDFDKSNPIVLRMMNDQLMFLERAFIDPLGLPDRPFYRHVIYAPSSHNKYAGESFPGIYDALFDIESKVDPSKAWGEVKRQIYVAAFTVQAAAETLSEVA

Sequence: GGGAGGACGAUGCGGAUCAGCCAUGUUUACGUCACUCCU
- Kd: 602 nM

Source: paper PMC7563377
